Entries after “also recorded” stand apart in the source; their conditions may differ.
Legend:
[1] = Release of HRP and Lysozyme from silk films, analyzed by biological potency tests (FIG. 5); format: physicochemical; conditions: for release / released protein-drug activity: methanol treated films
[2] = Protein activity after water vapor treatment of drug loaded films; format: physicochemical; conditions: water vapor treatment of drug loaded films at 25° C. over a saturated Na2SO4 solution for 24 hours
Method: Conclusion: Drug release from silk films was a function of the drugs molecular weight and film treatment with methanol. […] This decrease of activity was correlated to methanol sensitivity of Lys (and to a lesser extent for HRP). Alternatively, crystallinity can be induced by water vapor treatment (data not shown) of drug loaded films at 25° C. over a saturated Na2SO4 solution for 24 hours.

[3] = loaded films exposed to methanol

Row | Substance | release / released protein-drug activity ([1]; listed as Lys) | protein activity [2] | continuous release until [1, 3] [days] | initial burst [1, 3] | start of release [1, 3] [days] | release / released protein-drug activity [1] | initial burst, of the total loading ([1]; native silk films) [%] | lag phase ([1]; native silk films)
1 | Lysozyme | did not release substantial amounts over time; also recorded: substantially less protein-drug activity | No loss of protein activity | – | – | – | – | – | –
2 | horseradish peroxidase [HRP] | – | No loss of protein activity | 23 | No initial burst | 5 | substantially less protein-drug activity | 5 | two

Reference: patent publication US10548981B2, “Silk-based drug delivery system” (TRUSTEES OF TUFTS COLLEGE, priority 2004, dated 2020)
